# From patent US20060015952A1, “Screening assays and methods of tumor treatment” (GENENTECH, INC., priority 2003, published 2006)
# Marks after values point to notes of the source that are not given here.
# B1: 2G7: murine anti-TGF-beta monoclonal antibody; VL and VH SEQ ID Nos. 1 and 2 (antibody, listed as Mus musculus, V domains shown)
# VH: QVXLXQSGAELVRPGTSVKVSCKASGYAFTNYLIEWVKQRPGQGLEWIGVNNPGSGGSNYNEKFKGKATLTADKSSSTAYMQLSSLTSDDSAVYFCARSGGFYFDYWGQGTTQSPSPQPKRRAH
# VL: DIMMTQSPSSLAVSAGEKVTMSCKSSQSVLYSSNQKNYLAWYQQKPGQSPKLLIYWASTRESGVPDRFTGSGSGTDFTLTISSVQAEDLAVYYCHQYLSSDTFGGGTKLEIKRTVA
# modifications: not fully specified; Xaa 3, 5 Unknown amino acid
# Tests used:
# [1] = molecular target: T1, porcine, platelet-derived TGF-beta2 (Sus scrofa, UniProt P09858); assay: Immunoprecipitation of 125I-TGF-beta2; format: binding; settings: 2 μg purified monoclonal antibody
# T1 construct: porcine, platelet-derived ^125I-TGF-beta2; purchased R & D Systems; host or cells: porcine platelets
# T1 sequence (P09858 303-414 limits assumed): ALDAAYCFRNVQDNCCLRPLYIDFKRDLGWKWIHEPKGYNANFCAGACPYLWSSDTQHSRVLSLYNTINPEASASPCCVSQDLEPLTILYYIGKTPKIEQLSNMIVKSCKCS
# Method: (§1) The specificity of anti-TGF-beta monoclonal antibodies was also evaluated by their ability to immunoprecipitate ^125I-rTGF-beta1 or porcine, platelet-derived ^125I-TGF-beta2 (R & D Systems, Minneapolis, Minn.; specific activity 103.4 μCi/μg). Two μg of purified monoclonal antibody was incubated with 5×10^4 CPM of ^125I-rTGF-beta1 or ^125I-TGF-beta2 for two hours at 22° C. The immunocomplexes were pelleted with protein A-SEPHAROSE™ bead-formed agarose-based gel filtration matrix (Repligen, Cambridge, Mass.) coated with rabbit anti-mouse IgG (Boehringer Mannheim Biochemicals, Indianapolis, Ind.) and subsequently washed 3× with PBST. The complexes were dissociated from the protein A-SEPHAROSE™ bead-formed agarose-based gel filtration matrix with reducing sample buffer and electrophoresed into 12% SDS-polyacrylamide gel (SDS-PAGE) and exposed to autoradiography.
# TGF-beta1 = molecular target: T2, TGF-beta1 (Homo sapiens, UniProt P01137); assay: Affinity determination, solid-phase radioimmunoassay / competitive inhibition, Scatchard analysis; format: binding; settings: competitive inhibition assay
# T2 construct: made in house
# T2 sequence (P01137 279-390 limits assumed): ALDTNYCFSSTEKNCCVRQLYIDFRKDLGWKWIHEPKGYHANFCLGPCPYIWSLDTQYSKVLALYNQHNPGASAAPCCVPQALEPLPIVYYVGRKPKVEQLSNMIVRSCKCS
# Method: The solid-phase radioimmunoassay procedure described by Mariani et al, J. Immunol. Methods, 71: 43 (1984) was used to determine the affinities of the TGF-beta-specific monoclonal antibodies. Briefly, purified anti-TGF-beta monoclonal antibodies were coated on IMMUNLON™ 2 “REMOVAWELL”™ strips in pH 9.6 carbonate buffer for 18 hours at 4° C. The wells were washed and blocked as described above. 40,000 CPM/well of either ^125I-rTGF-beta1 or porcine ^125I-TGF-beta2 (R & D Systems), in 50 μl PBSG, was added to 2-fold serial dilutions of non-labeled rTGF-beta1 or porcine TGF-beta2 ranging from 2500 to 9.7 ng/well, in 50 μl PBSG. The resulting mixture was incubated for 18 hours at 4° C. The wells were washed and counted as described above and the affinity constants determined by Scatchard analysis (Munson and Pollard, Anal. Biochem., 107: 220 (1980)), which yields similar results as the non-linear regression analysis of Antoni and Mariani, J. Immunol. Meth., 83: 61 (1985).
# [2] = molecular target: T3, TGF-beta1 dimer (nonreduced) form (Homo sapiens, UniProt P01137); assay: Immunoblot analysis with rTGF-beta1; format: binding
# T3 construct: made in house
# T3 sequence (P01137 279-390 limits assumed): as above
# Method: One μg/lane of rTGF-beta1 was electrophoresed in 12% SDS-PAGE using non-reducing sample buffer to determine the reactivities of the various monoclonal antibodies with the dimer forms of rTGF-beta1. The peptides were transblotted onto nitrocellulose paper and probed with the appropriate monoclonal antibody conjugated with HRP. Bound antibody was visualized using the insoluble substrate 4-chloro-1-naphthol (Kirkegaard and Perry, Gathersburg, Md.). The reaction was stopped after 15 minutes by exhaustive washing with distilled water and the immunoblots were dried and photographed.
# 4T1 tumor cells = assay: 4T1 mouse mammary carcinoma model; format: in vivo
# Method: In a first set of experiments, 4T1 cells were derived from a single spontaneously arising mammary tumor from a BALB/cfC3H mouse. Primary 4T1 tumor cells were injected into mammary fat pads of immunocompetent BALB/c mice One week after injection, palpable primary tumors were observed. The tumor spontaneously metastasized into the lung (about two week after injection), liver and spleen (about three weeks after injection) and bone (between about 4 and 5 weeks after injection).
# The animals were treated with 15 mg/kg, 25 mg/kg and 43 mg/kg doses of an anti-TGF-β antibody (2G7). Tests were carried out at day 0, 1, 2, and 1 and 2 weeks after injection of cancer cells.
# F2-1282 tumor cell line = assay: Trastuzumab-sensitive Her2+ breast cancer mouse model; format: in vivo; settings: 25 mg/kg at day 0
# Method: (§2) Epithelial cells from trastuzumab-sensitive (F2-1282) and trastuzumab-resistant (Fo5) tumor cell lines were injected into mammary fat pads of immunocompetent mice.
# Fo5 tumor cell line = assay: Trastuzumab-resistant Her2+ breast cancer mouse model; format: in vivo; settings: 25 mg/kg at day 0
# Method: as §2
# Her2+ epithelial cells = assay: Metastasis from Her2+ epithelial cells (non-surface lung tumors); format: in vivo, mouse
# Method: as §2
# Metastasis from such cells produces non-surface lung tumors (images not shown), the incidence and growth of which are not inhibited by anti-TGF-β antibody treatment.
# PyMT tumors = assay: PyMT tumor mouse model of breast cancer; format: in vivo; settings: relative to IgG control
# Method: This is a mouse model of breast cancer caused by expression of the polyoma middle T oncoprotein (PyMT) in the mammary epithelium. Primary tumor cells from PyMT tumors were injected (2 million or 5 million cells) into the mammary fat pad of a recipient mouse. The tumor developed was then passaged in a large number of further mice.
# B16-F10 = assay: Mouse model of metastatic melanoma, B16-F10 subline; format: in vivo; settings: about 30 mg/kg
# Method: (§3) This study used B16-F10 and B16-BL6 metastatic melanoma sublines, subcutaneously injected into immunocompetent mice, to test the effect of anti-TGF-β antibodies (2G7) on primary and secondary melanoma. In particular, C57Black 6 mice were injected subcutaneously with 500,000 tumor cells. The primary tumor developed was removed at day 14, and the mice were sacrificed around day 28. The anti-TGF-β antibody concentration was approximately 30 mg/kg. The B16-F10 subline is known to be able to colonize bone if introduced into the bone by direct injection (not as a result of subcutaneous injection). The B16-BL6 subline is metastatic to the lung.
# B16-BL6 = assay: Mouse model of metastatic melanoma, B16-BL6 subline; format: in vivo; settings: about 30 mg/kg
# Method: as §3
# [3] = test system: B16-F10 and B16-BL6 metastatic melanoma sublines; assay: Mouse model of metastatic melanoma, secondary lung tumors; format: in vivo; settings: approximately 30 mg/kg
# Method: as §3
# rTGF-beta1 = rTGF-beta1 (Homo sapiens, UniProt P01137); assay: Immunoprecipitation of 125I-rTGF-beta1; format: binding; design: made in house; settings: 2 μg purified monoclonal antibody
# Sequence of rTGF-beta1 (P01137 279-390 limits assumed): as above
# Method: as §1
# [4] = early treatment (5 weeks after injection of cells)
# [5] = mice injected with tumor cells, relative to mice with tumors treated with control antibodies
# [6] = mice without tumor cells, relative to control mice without tumors
molecule,measurement,setting,value
B1,immunoprecipitation of 125I-TGF-beta2 (autoradiograph),[1],immunoprecipitated ^125I-TGF-beta2 to any measurable degree
same,affinity of interaction between TGF-beta1 and the monoclonal antibody,TGF-beta1,1.2e+08 L/mol
same,band strength in indirect immunoblot,[2]; nonreduced TGF-beta1 dimer,much stronger band than either 4A11 or 12H5
same,reactivity in indirect immunoblot with TGF-beta1 dimer,[2]; nonreduced form,reacted
same,results of 25-mg/kg dose versus 15-mg/kg dose,"4T1 tumor cells; 25 mg/kg vs 15 mg/kg, data not shown",better results than the 15-mg/kg dose
same,results of 25-mg/kg versus 43-mg/kg doses,4T1 tumor cells; 25 mg/kg vs 43 mg/kg,no significant difference
same,size of primary tumor,4T1 tumor cells; 43-mg/kg dose,transiently decreased
same,systemic levels of VEGF,4T1 tumor cells; 43-mg/kg dose,reduced
same,histology scores (grade and number of lobes affected) of secondary lung tumors,4T1 tumor cells; [4],decreased
same,volume of secondary lung tumors,4T1 tumor cells; [4],decreased
same,weight of secondary lung tumors,4T1 tumor cells; [4],decreased
same,breast tumor-induced bone destruction,4T1 tumor cells; early treatment (5 weeks after injection of tumor cells),inhibited certain parameters of breast tumor-induced bone destruction
same,BS/BV,4T1 tumor cells; [5],−6.6%
same,BV/TV,4T1 tumor cells; [5],+14.3%
same,Mineral density,4T1 tumor cells; [5],+6.3%
same,Trabecular number,4T1 tumor cells; [5],+6.5%**
same,Trabecular thickness,4T1 tumor cells; [5],+7.2%
same,BS/BV,4T1 tumor cells; [6],ns
same,BV/TV,4T1 tumor cells; [6],−4.8%
same,Mineral density,4T1 tumor cells; [6],ns
same,Trabecular number,4T1 tumor cells; [6],−2.8%*
same,Trabecular thickness,4T1 tumor cells; [6],ns
same,size of primary tumor,F2-1282 tumor cell line,increased
same,systemic VEGF levels,F2-1282 tumor cell line,increased
same,size of primary tumor,Fo5 tumor cell line,increased
same,systemic VEGF levels,Fo5 tumor cell line,increased
same,incidence and growth of non-surface lung tumors,Her2+ epithelial cells,not inhibited
same,primary tumor growth,PyMT tumors,decreased
same,survival of mice with melanoma,B16-F10,increased
same,survival of mice with melanoma,B16-F10; listed as anti-TGF-β antibody,increases
same,survival of mice with melanoma,B16-BL6,increased
same,survival of mice with melanoma,B16-BL6; listed as anti-TGF-β antibody,increases
same,incidence of metastatic lung tumor,[3],significantly decreased
same,number of metastatic lung tumor,[3],significantly decreased
same,incidence of metastatic lung tumor,[3]; listed as anti-TGF-β antibody,decreases
same,number of metastatic lung tumor,[3]; listed as anti-TGF-β antibody,decreases
same,immunoprecipitation of 125I-rTGF-beta1 (autoradiograph),rTGF-beta1,immunoprecipitated equivalent amounts
